T1: human P2X4R peptide (extracellular 13-amino-acid peptide fragment of human P2X4R) (Homo sapiens, UniProt Q99571, biotinylated (position not given) where immobilised as ligand)
T1 construct: P2X purinoceptor 4, human; extracellular 13-amino-acid peptide fragment, the counterpart of rat residues 301-313 (11/13 residues identical to the rat peptide); also called human P2X4 peptide; source: synthetic peptide (GenScript)
T1 chain: RDLAGNEQRTLIK

B1: humanized P2X4R scFv HC3-LC3 (lead) (scFv, V domains shown)
VH: EVQLVESGGGLVQPGGSLRLSCATSGFTFTDYYMHWVRQAPGKGLEWVGFIRNKANGYTTEYSASVKGRFTISRDNSKNTLYLQMNSLRAEDTAVYYCARWEGDLLYAMDYWGQGTLVTVSS
VL: DIQMTQSPSSLSASVGDRVTITCRASQGISNYLNWYQQKPGKAPKLLIYYTSSLHSGVPSRFSGSGSGTDFTLTISSLQPEDFAYYYCQQYSKLPWTFGGGTKVEIK
notes: humanized VH hscFv95.HC3 (CDRs of murine mscFv95 grafted on a human framework); 15-amino-acid linker, printed as (G4S)3; humanized VL hscFv95.LC3, as the VL of m3; Cloned NcoI/NotI into a pET32a-His vector; Captured on HIS1K penta-His sensors in the Octet assay; also called hscFv HC3-LC3; P2X4R hscFv; source: E. coli Rosetta-gami (DE3), purified (HisTrap, SEC)
B2: humanized P2X4R scFv HC2-LC3 (scFv, V domains shown)
VH: QVQLQESGPGLVKPSQTLSLTCTTSGFTFTDYYMSWVRQAPGKGLEWIGFIRNKANGYTTEYSASVKGRFTISRDNSKNQFSLRLSSVTAADTAVYYCARWEGDLLYAMDYWGQGTTVTVSS
VL: B1 VL
notes: humanized VH hscFv95.HC2, as the VH of m2; 15-amino-acid linker, printed as (G4S)3; humanized VL hscFv95.LC3 (CDRs of murine mscFv95 grafted on a human framework); Cloned NcoI/NotI into a pET32a-His vector; also called hscFv95.HC2 + hscFv95.LC3; source: E. coli Rosetta-gami (DE3), purified (HisTrap, SEC)
B3: humanized P2X4R scFv HC3-LC1 (scFv, V domains shown)
VH: B1 VH
VL: DIQMTQTTSSLSASLGDRVTISCSASQGISNYLNWYQQKPDGTVKLLIYYTSSLHSGVPSRFSGSGSGTDYSLTISNLEQEDIATYYCQQYSKLPWTFGGGTKLEIK
notes: humanized VH hscFv95.HC3, as the VH of m4; 15-amino-acid linker, printed as (G4S)3; humanized VL hscFv95.LC1, as the VL of m1; Cloned NcoI/NotI into a pET32a-His vector; also called hscFv95.HC3 + hscFv95.LC1; source: E. coli Rosetta-gami (DE3), purified (HisTrap, SEC)
B4: humanized P2X4R scFv HC1-LC1 (scFv, V domains shown)
VH: EVKLVESGGGLVQPGGSLRLSCATSGFTFTDYYMSWVRQPPGKALEWLGFIRNKANGYTTEYSASVKGRFTISRDNSQSILYLQMNTLRAEDSATYYCARWEGDLLYAMDYWGQGTSVTVSS
VL: B3 VL
notes: humanized VH hscFv95.HC1 (CDRs of murine mscFv95 grafted on a human framework); 15-amino-acid linker, printed as (G4S)3; humanized VL hscFv95.LC1 (CDRs of murine mscFv95 grafted on a human framework); Cloned NcoI/NotI into a pET32a-His vector; also called hscFv95.HC1 + hscFv95.LC1; source: E. coli Rosetta-gami (DE3), purified (HisTrap, SEC)
B5: humanized P2X4R scFv HC2-LC1 (scFv, V domains shown)
VH: B2 VH
VL: B3 VL
notes: humanized VH hscFv95.HC2 (CDRs of murine mscFv95 grafted on a human framework); 15-amino-acid linker, printed as (G4S)3; humanized VL hscFv95.LC1, as the VL of m1; Cloned NcoI/NotI into a pET32a-His vector; also called hscFv95.HC2 + hscFv95.LC1; source: E. coli Rosetta-gami (DE3), purified (HisTrap, SEC)

Target: T1, human P2X4R peptide (extracellular …)
Experiment: ELISA; indirect ELISA, purified hscFvs on human P2X4 peptide, triplicate wells (Figure 3B)
Details: both partners purified
In the case of B1, the Kd is reported as 2.3 nM. B2 gave a Kd of 29 nM. Binder B3 has a Kd of 4.7 nM. B4 was tested, and the Kd was 24 nM. For B5, the Kd was 12 nM.

Target: T1, human P2X4R peptide (extracellular …)
Experiment: BLI; Octet RED384; hscFv (5 ug/mL) captured on HIS1K penta-His sensors; peptide in 7 three-fold dilutions, 1.03-250 nM; 1X KB (PBS pH 7.4, 0.02% Tween-20, 0.1% albumin, 0.05% sodium azide); association 240 s, dissociation 420 s; global 1:1 fit
Details: both partners purified
Binder B1 has a Kd of 2.5 nM.

From PMC12248463, “Humanized scFv Molecule Specific to an Extracellular Epitope of P2X4R as Therapy for Chronic Pain Management” (Cells, 2025)
